{"source": "paper PMC5726764", "about": "(Biotechnology and bioengineering, 2017)", "binders": {"B1": {"name": "scFv-2D10, single-chain antibody of mAb 2D10 (scFv, V domains shown)", "VH": "EIQLQQSGPELVKPGASVKISCKASGYSFTDYIMLWVKQSHGKSLEWIGNINPYYGSTSYNLKFKGKATLTVDKSSSTAYMQLNSLTSEDSAVYYCARKNYYGSSLDYWGQGTTLTVSS", "VL": "DVVMTQTPFSLPVSLGDQASISCRSSQSLVHSNGNTYLHWYLQKPGQSPKLLIYKVSNRFSGVPDRFSGSGSGTDFTLKISRVEAEDLGVYFCSQSTHVPYTFGGGTKLEIK"}}, "key": {"[1]": {"molecular_target": "scFv-2 (120_15439_2), de novo designed single-chain antibody", "assay": "BLI"}, "[2]": {"molecular_target": "scFv-4 (140_15899_5), de novo designed single-chain antibody", "assay": "BLI"}, "[3]": {"molecular_target": "scFv-1 (120_6290_1), de novo designed single-chain antibody", "assay": "BLI"}, "[4]": {"molecular_target": "scFv-2 (120_15439_2), de novo designed single-chain antibody", "assay": "BLI", "remark": "listed apart in the source"}, "[5]": {"molecular_target": "scFv-2 (120_15439_2), de novo designed single-chain antibody", "assay": "BLI", "remark": "listed apart in the source"}, "[6]": {"molecular_target": "scFv-2 (120_15439_2), de novo designed single-chain antibody", "assay": "BLI", "remark": "listed apart in the source"}, "[7]": {"molecular_target": "scFv-2D10, single-chain antibody of mAb 2D10", "assay": "ITC"}, "[8]": {"molecular_target": "scFv-1 (120_6290_1), de novo designed single-chain antibody", "assay": "ITC"}, "[9]": {"molecular_target": "T1, dodecapeptide antigen DVFYPYPYASGS (as used in biolayer interferometry) (synthetic peptide)", "T1 chain": "DVFYPYPYASGS", "assay": "BLI"}}, "note": "Like-named read-outs stand apart in the source and are kept apart here.", "data": [{"binder": "DVFYPYPYASGS", "note": "[dodecapeptide antigen … (as used in biolayer interferometry)]", "values": [{"measurement": "Kd", "setting": "[1]", "result": 17.5, "unit": "nM"}, {"measurement": "Kd", "setting": "[2]", "result": 23.8, "unit": "nM"}, {"measurement": "kobs", "setting": "[2]", "result": 0.0039, "unit": "s⁻¹"}, {"measurement": "koff", "setting": "[2]", "result": 0.00171, "unit": "s⁻¹"}, {"measurement": "Kd", "setting": "[3]", "result": 8.9, "unit": "nM"}, {"measurement": "kobs", "setting": "[3]", "result": 0.0033, "unit": "s⁻¹"}, {"measurement": "Kd", "setting": "[4]", "result": 14.4, "unit": "nM"}, {"measurement": "kobs", "setting": "[4]", "result": 0.0041, "unit": "s⁻¹"}, {"measurement": "koff", "setting": "[4]", "result": 0.00132, "unit": "s⁻¹"}, {"measurement": "Kd", "setting": "[5]", "result": 2.55, "unit": "nM"}, {"measurement": "Kd", "setting": "[6]", "result": 21.5, "unit": "nM"}]}, {"binder": "DVFYPYPYASGS", "note": "[dodecapeptide antigen …, not conjugated to BSA (as used in ITC)]", "values": [{"measurement": "Kd", "setting": "[7]", "result": 1, "unit": "nM"}, {"measurement": "stoichiometry N", "setting": "[7]", "result": 1}, {"measurement": "stoichiometry N", "setting": "[8]", "result": 1}]}, {"binder": "B1", "values": [{"measurement": "Kd", "setting": "[9]", "result": 3.8, "unit": "nM"}, {"measurement": "kon", "setting": "[9]", "result": 206000, "unit": "M⁻¹ s⁻¹"}]}]}
